The values that follow come from patent publication US20150100046A1, “INTRAOCULAR DRUG DELIVERY DEVICE AND ASSOCIATED METHODS” (priority 2013, published 2015).

The nature of this data set: Ocular tissue drug concentration by ELISA after implantation of loaded intraocular device. It is filed as in vivo, New Zealand white rabbits. Particulars: intraocular device loaded with Avastin implanted in lens capsule after lens extraction, 1 week post implantation. The source says: Three intraocular devices were implanted into eyes of New Zealand white rabbits under general anesthesia after lens extraction (phacoemulsification technique). Two of the devices were loaded with Avastin® (bevacizumab) and one was loaded with the contrast agent gadolinium-labeled albumin (Galbumin™) as a control. Proper intraocular device position was verified by MRI as well as clinical examination.
The rabbits were sacrificed and the eyes are removed and assayed after 1 week post implantation. Bevacizumab (Avastin®) was detected by ELISA in the retina and vitreous at concentrations of 24-48 mcg/mL, and was not present in the control rabbit eye.
(In general: In an ELISA, binding on a coated surface is turned into a signal by an enzyme label.)

As to bevacizumab [Bevacizumab (Avastin®)], the “concentration detected by ELISA in the retina and vitreous” value was in the range of 24000 to 48000 ng/mL.
